Test results: paper PMC6050342, “Molecular identification and characterization of rhodaneses from the insect herbivore Pieris rapae” (Scientific Reports, 2018)

Substrate: O=S(O)(O)=S
Assay: purified protein
Format: biochemical, Pieris rapae
Settings: 50 mM KCN, Tris-HCl pH 8.5, 30 °C

B1: PrTST2 (Pieris rapae) (protein)
chain: MGNSNSNSTMVDPVRFVSYEDMLKVIHEPEKVIIDVRNPDEIESTGKIPSSINIPLNTVSDTLASMPDDEFLKQYQRPKPSASDELIFYCKSGRRSQEALDKALKLGFSNSKSYLGSWEDWSSKQK
notes: active-site Cys-90
**Q.** Which Km does the source give for B1 here?
**A.** The Km was 840 ± 270 µM.

**Q.** And the Vmax?
**A.** The Vmax was 14.2 µmol/min/mg.
